Results as given in patent US20190375846A1 (ULTRAHUMAN ONE, published 2019).
Where a chain is given by its changes, count along the chain named.

Tests used:
human GITR-Fc [1] = target: T1, human GITR-Fc (human, UniProt Q9Y5U5 26-161); test: ELISA of IgG1 proteins
T1 construct: Recombinant GITR-Fc; also called hGITR-Fc; hGITR; not shown: Fc part
T1 sequence (looked up): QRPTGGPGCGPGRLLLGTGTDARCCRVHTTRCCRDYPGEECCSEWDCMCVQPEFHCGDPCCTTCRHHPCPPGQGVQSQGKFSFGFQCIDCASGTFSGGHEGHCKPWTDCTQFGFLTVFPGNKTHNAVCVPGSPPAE
Protocol: (§1) To coat Greiner Bio-One High bind ELISA plates, target proteins were diluted to 1 μg/ml in carbonate buffer and added at 100 μl per well, at 4° C., o/n. Coated plates were washed 3× with PBS pH7.4, blocked with 1% BSA in PBS (380 μl/well) for 1 hr at RT, then washed 3× with PBS-Tween 20 (PBST). GITR antibodies (100 μl/well; diluted in PBST) were then added and then incubated 1 hr at RT. Plates were then washed 3× with PBST and goat anti-human kappa chain-HRP added (100 μl/well) at RT, for 1 hr. Plates were then washed 3× with PBST and twice with PBS before the addition of 100 μl TMB per well. Reactions were stopped by adding 100 μl 2M H₂SO₄/well and OD was read on a plate reader at 450 nm. IgG binding analysis via ELISA on negatively charged biomolecular surfaces were performed as previously described (see Mouquet et al., 2010, Nature 467: 591-595).
To examine the influence of these mutations on immunogenicity and function, five further designer mutants (A6.1 to A6.5, see Table 4 for CDR sequences) were also submitted for Epibase analysis (Table 5). […] Cyno GITR binding was greatly diminished for all of clones A6.2 to A6.5.

human GITR-Fc [2] = target: T1, human GITR-Fc; test: direct titration ELISA on coated human GITR-Fc, IgG1 0.001-1 µg/ml, OD 450 nm
Protocol: as §1
The 17 purified IgGs described above were then tested for binding to human and cyno GITR-Fc in direct titration ELISA format.

[3] = target: T2, cynomolgus monkey GITR-Fc (cynomolgus monkey (Macaca fascicularis)); test: SPR (Biacore), Fab over GITR-Fc captured on anti-human Fc
T2 construct: also called cyno GITR-Fc; cGITR-Fc
Protocol: (§2) For affinity estimation, anti-human IgG Fc antibody was amine coupled at pH 5 onto three flow cells (Fc 1 to Fc 3) of a Biacore CM5 chip. The level of anti-Fc antibody immobilised onto the chip was approximately 550 RU. Human and cyno GITR-Fc and irrelevant receptor-Fc proteins were then captured onto the anti-Fc antibodies (by injecting over the antibody surface until nearly/completely saturated) in order that 80-100 RU were captured. Fab monomers were then injected over the Fc proteins captured on the chip at 37° C. a flow rate of 50 μl/min for 120 seconds, followed by Biacore running buffer (HBS-EP) being flowed over the chip for 240 seconds at 50 μl/min. The chip was regenerated between cycles using 2×15 second injections of 10 mM Glycine pH 2. The concentrations of Fab samples tested were 400, 200, 100, 50, 25, 12.5, and 6.25 nM. A Biacore running buffer control (0 nM) was also included as a control.
(§3) Monomeric Fab fragments were generated and flowed in the mobile phase on human and cyno GITR-Fc coated biosensor chips, to derive 1:1 binding values.

human GITR-Fc [4] = target: T1, human GITR-Fc; test: SPR (Biacore), Fab over GITR-Fc captured on anti-human Fc, 37 C, 1:1 model
Protocol: as §2, §3

[5] = target: T2, cynomolgus monkey GITR-Fc; test: as above
Protocol: as §2, §3

[6] = target: T3, human GITR at the cell surface (human, UniProt Q9Y5U5 26-241); test: cell-based or functional assay
T3 sequence (looked up): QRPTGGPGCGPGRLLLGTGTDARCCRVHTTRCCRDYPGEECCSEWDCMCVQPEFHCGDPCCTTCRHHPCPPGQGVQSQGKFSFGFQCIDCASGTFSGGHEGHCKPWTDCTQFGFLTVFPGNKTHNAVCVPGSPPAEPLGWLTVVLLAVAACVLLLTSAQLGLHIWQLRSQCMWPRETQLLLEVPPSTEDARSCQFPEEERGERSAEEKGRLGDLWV

[7] = target: T4, cynomolgus monkey GITR at the cell surface (cynomolgus monkey); test: cell-based or functional assay
[8] = target: T3, human GITR at the cell surface; test: flow cytometry on CHO-K1 human GITR+ cells; competitor: soluble human GITRL
[9] = target: T4, cynomolgus monkey GITR at the cell …; test: flow cytometry, cyno GITR-transfected murine blastoma cells, 10,000-13.7 ng/ml
Protocol: (§4) Concentration-dependent binding to GITR at the cell surface was analysed using flow cytometry.

[10] = target: T3, human GITR at the cell surface; test: flow cytometry, human GITR-transfected murine blastoma cells, 10,000-13.7 ng/ml
Protocol: as §4

human GITR-Fc [11] = target: T1, human GITR-Fc; test: HTRF competition: unlabelled IgG1 titrated 0.003-100 µg/ml against terbium-labelled VH1/VL1 IgG on biotinylated human GITR-Fc with SA-XL665, 665/615 ratio
Protocol: A competition HTRF assay was established to examine epitope competition against VH1/VL1 IgG by grafted and library-derived clones. The purified VH1/VL1 IgG was labelled with terbium using a labelling kit (CisBio) per the manufacturers instructions. The final reaction mix contained biotinylated human GITR-Fc, SA-XL665 (CisBio), terbium-labelled parental […], and competitor IgG of interest, prepared as described above, in a total reaction volume of 20 μl in 1× assay buffer [50 mM sodium phosphate, pH 7.5, 400 mM potassium fluoride, and 0.1% BSA (w/v)]. Reagents were added sequentially on a MiniTrak Liquid Handling Platform (Perkin-Elmer) into 384-well low-volume black plates (Nunc). Reactions proceeded for 1 h at room temperature, and plates were subsequently read on a plate reader with excitation at 340 nm and two emission readings at 615 nm (measuring input donor fluorescence from VH1-VL1-cryptate) and 665 nm (measuring output acceptor fluorescence from SAXL665). Readings were expressed as 665 nm/615 nm ratios.
To examine the competition of the library-derived clones with the unaltered, closest-germline grafted CDRs of VH1/VL1 IgG, an Homogeneous Time Resolved Fluorescence (HTRF) assay was established. This assay incorporated terbium-labelled VH1/VL1 IgG, Biotinylated hGITR-Fc and streptavidin-XL665, in solution-phase binding. […]

B1: A6.2 IgG1 (antibody, V domains shown)
VH: EVQLVESGGGLVQPGGSLRLSCAASGFSLSTSGYGVGWVRQAPGKGLEWLAHIWWDDDKYYVDSVKGRFTISRDNAKNSLYLQMNSLRAEDTAVYYCARTRQYFPFAYWGQGTLVTVSS
VL: EIVLTQSPATLSLSPGERATLSCRASQSVGSNLAWYQQKPGQAPRLLIYSASNRYTGIPARFSGSGSGTDFTLTISSLEPEDFAVYYCQQYSTNPLTFGGGTKVEIK
notes: Human IgG1, designer mutant of D-A6; built as m28; also called Clone A6.2
- binding result (human GITR-Fc [1]): binds

B2: MH IgG1 (Maximally Humanized designer clone) (antibody, V domains shown)
VH: B1 VH with V36M, G37S, L50V, D58E
VL: B1 VL with N53Y, Y55A, N94D
notes: Human IgG1, designer clone; also called Clone MH
- binding result (human GITR-Fc [2]): binds

B3: A6.3 IgG1 (antibody, V domains shown)
VH: B1 VH with G37S
VL: B1 VL with N94D
notes: Human IgG1, designer mutant of D-A6; built as m28; also called Clone A6.3
- binding result (human GITR-Fc [1]): binds

B4: D-A6 Fab (Fab, V domains shown)
VH: B1 VH
VL: B1 VL with N53Y, N94D
notes: v-domains built as m25; also called D-A6 Fab fragment
- fold improved affinity against VH1/VL1 Fab [3]: ~4 fold
- Kd (human GITR-Fc [4]): 120 nM
- koff (human GITR-Fc [4]): 0.011 s⁻¹
- kon (human GITR-Fc [4]): 92000 M⁻¹ s⁻¹
- Kd [5]: 57 nM
- koff [5]: 0.0021 s⁻¹
- kon [5]: 37000 M⁻¹ s⁻¹

B5: A6.5 IgG1 (antibody, V domains shown)
VH: B1 VH with V36M
VL: B1 VL with N94D
notes: Human IgG1, designer mutant of D-A6; built as m28; also called Clone A6.5
- binding result (human GITR-Fc [1]): binds

B6: A6.4 IgG1 (antibody, V domains shown)
VH: B1 VH with V36M, G37S
VL: B1 VL with N94D
notes: Human IgG1, designer mutant of D-A6; built as m28; also called Clone A6.4
- binding result (human GITR-Fc [1]): binds

B7: VH1/VL1 IgG1 (antibody, V domains shown)
VH: QVTLRESGPALVKPTQTLTLTCTFSGFSLSTSGMGVGWIRQPPGKALEWLAHIWWDDDKYYNPSLKSRLTISKDTSKNQVVLTMTNMDPVDTATYYCARTRRYFPFAYWGQGTLVTVSS
VL: EIVMTQSPATLSVSPGERATLSCKASQNVGTNVAWYQQKPGQAPRLLIYSASYRYSGIPARFSGSGSGTEFTLTISSLQSEDFAVYYCQQYNTDPLTFGGGTKVEIK
notes: Full-length human IgG1; also called hVH1/VL1; G-VH1/VL1
- EC50 of FcγRIIIa activation, Promega ADCC reporter assay, CHO-K1 target cells expressing human GITR [6]: 35.6 nM
- EC50 of FcγRIIIa activation, Promega ADCC reporter assay, CHO-K1 target cells expressing cyno GITR [7]: 160 nM
- fold reduction of binding signal in the presence of 10 µg/ml soluble GITRL [8]: > 10 fold
- concentration at maximum MFI [9]: ~1110 ng/mL
- concentration at maximum MFI [10]: ~1110 ng/mL
- IC50 (read off the curve) (human GITR-Fc [11]): ~1 µg/mL
